{
  "source": "patent US20210369812A1",
  "about": "“OSTEOINDUCTIVE PEPTIDES, COMPOSITIONS, IMPLANTS, AND METHODS OF USE” (The Board of Regents of the University of Oklahoma, priority 2018, published 2021)",
  "biological_target": "T1, BMPR2 (Homo sapiens, UniProt Q13873)",
  "T1 construct": "purchased G&P Biosciences",
  "T1 sequence (Q13873 27-150 limits assumed)": "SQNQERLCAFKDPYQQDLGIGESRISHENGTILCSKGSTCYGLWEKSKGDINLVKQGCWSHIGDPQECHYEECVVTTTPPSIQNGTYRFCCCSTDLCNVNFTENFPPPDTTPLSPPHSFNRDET",
  "test": "Enzyme-linked immune sorbent assay for receptor binding (BMPR2)",
  "conditions": "peptide on p3 of M13 phage; absorbance 450 nm; n=4; vs wild type phage",
  "excerpt": "Groups having the same lowercase letter assigned (above the bar) were not statistically different from each other. Groups having different letters assigned (above the bar) were statistically different from each other. […] The primary antibody was mouse anti-g3p (p8) IgG. The secondary antibody was anti-mouse IgG conjugated with horseradish peroxidase. The substrate, 3,3′,5,5′-Tetramethylbenzidine was detected at 450 nm after stopping the reaction with 1 M HCl.\nBlocking buffer (0.1 M NaHCO3 (pH 8.6), 5 mg/ml BSA. Filter sterilized, stored at 4° C.) was prepared. TBS (50 mM Tris-HCl (pH 7.5), 150 mM NaCl, autoclaved, stored at room temperature) was prepared. Separate solutions of the target receptors were then made. For BMPR1A, a 10 μg/ml stock solution was made. For BMPR2, a 10 μg/ml solution was also made. Separate wells with n=4 for each different peptide bearing phage group were then coated with one of the receptors. […] After a brief pilot test, it should be noted that using 10^10 phage/ml was determined to work best, but other concentrations of virus also worked consistently. […] Then, […] of freshly prepared 3,3′,5,5′-Tetramethylbenzidine (TMB) was added to each well and the absorbance at 370 nm and 652 nm was monitored for 1 hour using an ELISA plate reader. […] The absorbance at 450 nm for each well was then measured.",
  "data": [
    {"sequence": "SGTQDSMVGWNK (Completely synthesized in the lab - Ph.D.-12 Phage Display Peptide Library Kit (New England Biolabs))", "values": [
      {"measurement": "Relative binding strength in ELISA to BMPR2", "result": "statistically significant binders"}
    ]}
  ]
}
